Measured values reported in the supplement of paper PMC11865577.

How the values were obtained:
Experiment in all cases: pull-down binding Z-score (relative to library population); higher = stronger binding
Conditions in all cases: RNA library: Library-2
[1] = system: TO-3-N3 (biotin conjugate)
How it was run: (§1)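 A heat-folded, dye-end-labelled (Cy5 or Cy3) RNA library (1 μg, phosphate/NaCl/KCl buffer) was exposed for 60 min at 25 °C to streptavidin beads holding 100 pmol of biotin-conjugated small molecule. RNA retained on the beads was eluted in hot SDS and hybridised to a DNA barcode microarray for 20 h at 55.5 °C. Binding scores were Z-scores against the library mean and standard deviation, calculated after subtracting beads alone and taking trimmed means of replicate probes.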

[2] = system: TO-3-N3-2 (biotin conjugate)
How it was run: as §1

TO-N3 (biotin conjugate) = system: TO-N3 (biotin conjugate)
How it was run: as §1

[3] = system: TO-N3-2 (biotin conjugate)
How it was run: as §1

“GCCUGUGUAAAUGGU [IAV_invivo_NA_6_Motif_8+IAV_invivo_NA_6_Motif_8]” was tested, and the “pull-down binding Z-score” value [1] was -0.344, the “pull-down binding Z-score” value [2] was -0.297 and the “pull-down binding Z-score” value (TO-N3 (biotin conjugate)) was -0.471. For the same sequence, the “pull-down binding Z-score” value [3] was -0.434.

For “GCCUUGAAGCCCCUUUUCUCUAUCUUUAUGCUUUAGUCUACUUCUUGCAGAGUAUAAACUUUGUAAGAAUAAUAAUGAGGC”, the “pull-down binding Z-score” value [1] was 0.275, the “pull-down binding Z-score” value [2] was 0.362 and the “pull-down binding Z-score” value (TO-N3 (biotin conjugate)) was 0.232. The “pull-down binding Z-score” value [3] was 0.166.

In the case of GCGCAGCCAGAAACUGGCAGCGC [mismatch-AA], the “pull-down binding Z-score” value [1] is reported as -0.468, the “pull-down binding Z-score” value [2] is reported as -0.365 and the “pull-down binding Z-score” value (TO-N3 (biotin conjugate)) is reported as -0.528. The “pull-down binding Z-score” value [3] was -0.354.

With GCGCAGCCAGAAACUGGCCGCGC [mismatch-AC] the “pull-down binding Z-score” value [1] was -0.43, the “pull-down binding Z-score” value [2] was -0.295 and the “pull-down binding Z-score” value (TO-N3 (biotin conjugate)) was -0.746. For the same sequence, the “pull-down binding Z-score” value [3] was -1.

With GCGCAGCCAGAAACUGGCGGCGC [mismatch-AG] the “pull-down binding Z-score” value [1] was 0.114, the “pull-down binding Z-score” value [2] was -0.168 and the “pull-down binding Z-score” value (TO-N3 (biotin conjugate)) was 0.0293. The “pull-down binding Z-score” value [3] was -0.228.

GCGCCGCCAGAAACUGGCAGCGC [mismatch-CA] was tested, and the “pull-down binding Z-score” value [1] was 0.381, the “pull-down binding Z-score” value [2] was -0.524 and the “pull-down binding Z-score” value (TO-N3 (biotin conjugate)) was 0.225. For the same sequence, the “pull-down binding Z-score” value [3] was -1.05.

In the case of GCGCCGCCAGAAACUGGCCGCGC [mismatch-CC], the “pull-down binding Z-score” value [1] is reported as -0.796, the “pull-down binding Z-score” value [2] is reported as -0.533 and the “pull-down binding Z-score” value (TO-N3 (biotin conjugate)) is reported as -1.08. The “pull-down binding Z-score” value [3] was -0.608.

For GCGCCGCCAGAAACUGGCUGCGC [mismatch-CU], the “pull-down binding Z-score” value [1] was 0.308, the “pull-down binding Z-score” value [2] was -0.0148 and the “pull-down binding Z-score” value (TO-N3 (biotin conjugate)) was 0.00381. For the same sequence, the “pull-down binding Z-score” value [3] was -0.671.

In the case of GCGCGGCCAGAAACUGGCAGCGC [mismatch-GA], the “pull-down binding Z-score” value [1] is reported as -0.773, the “pull-down binding Z-score” value [2] is reported as -0.798 and the “pull-down binding Z-score” value (TO-N3 (biotin conjugate)) is reported as -1.33. For the same sequence, the “pull-down binding Z-score” value [3] was -1.21.

With GCGCGGCCAGAAACUGGCGGCGC [mismatch-GG] the “pull-down binding Z-score” value [1] was -0.0922, the “pull-down binding Z-score” value [2] was -0.302 and the “pull-down binding Z-score” value (TO-N3 (biotin conjugate)) was -0.309. The “pull-down binding Z-score” value [3] was -0.598.

GCGCGGCCAGAAACUGGCUGCGC [mismatch-GU] was tested, and the “pull-down binding Z-score” value [1] was 0.969, the “pull-down binding Z-score” value [2] was 0.0256 and the “pull-down binding Z-score” value (TO-N3 (biotin conjugate)) was 0.831. For the same sequence, the “pull-down binding Z-score” value [3] was -0.388.

“GCGCUACUGCAACGAUACCGAUACAAGCCUCACUCCCUUUCGGAUGGCUUAUUGUUGGCGUUGCACUUCUUGCUGUUUUUCAGAGCGC” was tested, and the “pull-down binding Z-score” value [1] was -0.679, the “pull-down binding Z-score” value [2] was 0.232 and the “pull-down binding Z-score” value (TO-N3 (biotin conjugate)) was -0.282. For the same sequence, the “pull-down binding Z-score” value [3] was 0.285.

In the case of GCGCUGCCAGAAACUGGCAAAAGCGC [bulge-AAA], the “pull-down binding Z-score” value [1] is reported as -0.765, the “pull-down binding Z-score” value [2] is reported as -0.295 and the “pull-down binding Z-score” value (TO-N3 (biotin conjugate)) is reported as -0.936. For the same sequence, the “pull-down binding Z-score” value [3] was -0.689.

For GCGCUGCCAGAAACUGGCAAAGCGC [bulge-AA], the “pull-down binding Z-score” value [1] was -0.184, the “pull-down binding Z-score” value [2] was -0.00126 and the “pull-down binding Z-score” value (TO-N3 (biotin conjugate)) was -0.403. The “pull-down binding Z-score” value [3] was -0.0432.

GCGCUGCCAGAAACUGGCAAGCGC [bulge-A] was tested, and the “pull-down binding Z-score” value [1] was -0.289, the “pull-down binding Z-score” value [2] was -0.541 and the “pull-down binding Z-score” value (TO-N3 (biotin conjugate)) was -0.493. For the same sequence, the “pull-down binding Z-score” value [3] was -1.12.

For GCGCUGCCAGAAACUGGCAGCGC [full-UA], the “pull-down binding Z-score” value [1] was -0.337, the “pull-down binding Z-score” value [2] was -0.274 and the “pull-down binding Z-score” value (TO-N3 (biotin conjugate)) was -0.599. The “pull-down binding Z-score” value [3] was -0.943.

With GCGCUGCCAGAAACUGGCCAGCGC [bulge-C] the “pull-down binding Z-score” value [1] was -0.488, the “pull-down binding Z-score” value [2] was -0.512 and the “pull-down binding Z-score” value (TO-N3 (biotin conjugate)) was -0.667. The “pull-down binding Z-score” value [3] was -0.547.

With GCGCUGCCAGAAACUGGCCCAGCGC [bulge-CC] the “pull-down binding Z-score” value [1] was -0.161, the “pull-down binding Z-score” value [2] was -0.288 and the “pull-down binding Z-score” value (TO-N3 (biotin conjugate)) was -0.282. The “pull-down binding Z-score” value [3] was 0.352.

In the case of GCGCUGCCAGAAACUGGCCCCAGCGC [bulge-CCC], the “pull-down binding Z-score” value [1] is reported as -0.229, the “pull-down binding Z-score” value [2] is reported as -0.182 and the “pull-down binding Z-score” value (TO-N3 (biotin conjugate)) is reported as -0.283. For the same sequence, the “pull-down binding Z-score” value [3] was 0.6.

For GCGCUGCCAGAAACUGGCCGCGC [mismatch-UC], the “pull-down binding Z-score” value [1] was -0.648, the “pull-down binding Z-score” value [2] was -0.66 and the “pull-down binding Z-score” value (TO-N3 (biotin conjugate)) was -0.905. The “pull-down binding Z-score” value [3] was -0.896.

In the case of GCGCUGCCAGAAACUGGCGAGCGC [bulge-G], the “pull-down binding Z-score” value [1] is reported as -0.426, the “pull-down binding Z-score” value [2] is reported as -0.354 and the “pull-down binding Z-score” value (TO-N3 (biotin conjugate)) is reported as -0.593. The “pull-down binding Z-score” value [3] was -0.578.

For GCGCUGCCAGAAACUGGCGGAGCGC [bulge-GG], the “pull-down binding Z-score” value [1] was -0.714, the “pull-down binding Z-score” value [2] was -0.672 and the “pull-down binding Z-score” value (TO-N3 (biotin conjugate)) was -0.873. For the same sequence, the “pull-down binding Z-score” value [3] was -0.22.

In the case of GCGCUGCCAGAAACUGGCGGCGC [mismatch-UG], the “pull-down binding Z-score” value [1] is reported as 0.983, the “pull-down binding Z-score” value [2] is reported as -0.0108 and the “pull-down binding Z-score” value (TO-N3 (biotin conjugate)) is reported as 0.624. For the same sequence, the “pull-down binding Z-score” value [3] was -0.856.

In the case of GCGCUGCCAGAAACUGGCGGGAGCGC [bulge-GGG], the “pull-down binding Z-score” value [1] is reported as 0.781, the “pull-down binding Z-score” value [2] is reported as 0.00655 and the “pull-down binding Z-score” value (TO-N3 (biotin conjugate)) is reported as 0.688. The “pull-down binding Z-score” value [3] was 0.604.

GCGCUGCCAGAAACUGGCUAAGCGC [bulge-UA] was tested, and the “pull-down binding Z-score” value [1] was -0.669, the “pull-down binding Z-score” value [2] was -0.353 and the “pull-down binding Z-score” value (TO-N3 (biotin conjugate)) was -0.911. For the same sequence, the “pull-down binding Z-score” value [3] was -0.61.

In the case of GCGCUGCCAGAAACUGGCUAGCGC [bulge-U], the “pull-down binding Z-score” value [1] is reported as 0.183, the “pull-down binding Z-score” value [2] is reported as -0.328 and the “pull-down binding Z-score” value (TO-N3 (biotin conjugate)) is reported as -0.0999. For the same sequence, the “pull-down binding Z-score” value [3] was -0.75.

With GCGCUGCCAGAAACUGGCUCAGCGC [bulge-UC] the “pull-down binding Z-score” value [1] was -0.319, the “pull-down binding Z-score” value [2] was -0.576 and the “pull-down binding Z-score” value (TO-N3 (biotin conjugate)) was -0.584. For the same sequence, the “pull-down binding Z-score” value [3] was -0.361.

For GCGCUGCCAGAAACUGGCUGAGCGC [bulge-UG], the “pull-down binding Z-score” value [1] was 0.553, the “pull-down binding Z-score” value [2] was -0.0129 and the “pull-down binding Z-score” value (TO-N3 (biotin conjugate)) was 0.392. The “pull-down binding Z-score” value [3] was -0.14.

GCGCUGCCAGAAACUGGCUGCGC [mismatch-UU] was tested, and the “pull-down binding Z-score” value [1] was 0.141, the “pull-down binding Z-score” value [2] was -0.405 and the “pull-down binding Z-score” value (TO-N3 (biotin conjugate)) was -0.231. For the same sequence, the “pull-down binding Z-score” value [3] was -0.689.

GCGCUGCCAGAAACUGGCUUAAGCGC [bulge-UUA] was tested, and the “pull-down binding Z-score” value [1] was 0.176, the “pull-down binding Z-score” value [2] was -0.252 and the “pull-down binding Z-score” value (TO-N3 (biotin conjugate)) was -0.128. For the same sequence, the “pull-down binding Z-score” value [3] was -0.601.

For GCGCUGCCAGAAACUGGCUUAGCGC [bulge-UU], the “pull-down binding Z-score” value [1] was 0.63, the “pull-down binding Z-score” value [2] was -0.0172 and the “pull-down binding Z-score” value (TO-N3 (biotin conjugate)) was 0.691. For the same sequence, the “pull-down binding Z-score” value [3] was 0.338.

GCGCUGCCAGAAACUGGCUUCAGCGC [bulge-UUC] was tested, and the “pull-down binding Z-score” value [1] was -0.611, the “pull-down binding Z-score” value [2] was -0.243 and the “pull-down binding Z-score” value (TO-N3 (biotin conjugate)) was -0.796. The “pull-down binding Z-score” value [3] was -0.304.

For GCGCUGCCAGAAACUGGCUUGAGCGC [bulge-UUG], the “pull-down binding Z-score” value [1] was 1.04, the “pull-down binding Z-score” value [2] was 0.543 and the “pull-down binding Z-score” value (TO-N3 (biotin conjugate)) was 0.932. For the same sequence, the “pull-down binding Z-score” value [3] was 0.434.

For GCGCUGCCAGAAACUGGCUUUAGCGC [bulge-UUU], the “pull-down binding Z-score” value [1] was -0.00635, the “pull-down binding Z-score” value [2] was -0.158 and the “pull-down binding Z-score” value (TO-N3 (biotin conjugate)) was -0.24. The “pull-down binding Z-score” value [3] was -0.562.

With GCGCUUCAGCGUUCUUCGGAAUGUCGCGC the “pull-down binding Z-score” value [1] was -0.429, the “pull-down binding Z-score” value [2] was -0.453 and the “pull-down binding Z-score” value (TO-N3 (biotin conjugate)) was -0.787. For the same sequence, the “pull-down binding Z-score” value [3] was -0.654.

With “GCGCUUUAGGUCUACACGGGCCGAAGCUAACGCGUUAAGCGC [3-way model-5_mrRNA]” the “pull-down binding Z-score” value [1] was 0.146, the “pull-down binding Z-score” value [2] was 0.0632 and the “pull-down binding Z-score” value (TO-N3 (biotin conjugate)) was 0.0607. The “pull-down binding Z-score” value [3] was 0.245.

With “GCUAAAGAUACUACUGAAGCCUUUGAAAAAAUGGUUUCACUACUUUCUGUUUUGC [SHAPE_invitro_SARS-CoV-2_Motif_217]” the “pull-down binding Z-score” value [1] was 0.0938, the “pull-down binding Z-score” value [2] was 0.0624 and the “pull-down binding Z-score” value (TO-N3 (biotin conjugate)) was 0.166. For the same sequence, the “pull-down binding Z-score” value [3] was -0.245.

In the case of “GCUAAAUUGUUACAUAAACCUAUUGUUUGGCAUGUUAACAAUGC [SHAPE_invitro_SARS-CoV-2_Motif_124]”, the “pull-down binding Z-score” value [1] is reported as -0.783, the “pull-down binding Z-score” value [2] is reported as -0.265 and the “pull-down binding Z-score” value (TO-N3 (biotin conjugate)) is reported as -0.96. For the same sequence, the “pull-down binding Z-score” value [3] was -1.24.
